Results reported in patent EP1233271A1 (Huber, Lukas, dated 2002).

Target: T1, GST (UniProt P08515 1-218 = GST)
T1 construct: Negative control of the pull-down; also called GST alone
Assay: GST pull-down on GSH-sepharose, immunoblot

T1 sequence (P08515 whole entry): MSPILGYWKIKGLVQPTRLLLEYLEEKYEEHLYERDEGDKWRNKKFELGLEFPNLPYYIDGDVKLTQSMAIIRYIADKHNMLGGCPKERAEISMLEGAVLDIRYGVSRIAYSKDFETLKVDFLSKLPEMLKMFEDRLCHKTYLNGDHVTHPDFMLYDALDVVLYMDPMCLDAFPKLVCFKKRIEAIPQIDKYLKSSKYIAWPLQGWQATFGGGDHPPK

B1: His6-T7-tagged MP1 (other, UniProt O88653 1-124, looked up)
chain: MADDLKRFLYKKLPSVEGLHAIVVSDRDGVPVIKVANDSAPEHALRPGFLSTFALATDQGSKLGLSKNKSIICYYNTYQVVQFNRLPLVVSFIASSSANTGLIVSLEKELAPLFEELIKVVEVS
notes: Recombinant, in bacterial lysate; also called His6-T7-MP1; not shown: N-terminal His6-T7 tag from vector pET28 (Novagen)
Q: Does B1 bind?
A: no binding
